Laboratory results taken from US20140314832A1 (SHANGHAI PULMONARY HOSPITAL TONGJI UNIVERSITY SCHOOL OF …, published 2014).

Columns and labels:
[1] = target: T1, natural SP-A in rat lung tissue (rat, UniProt P08427 21-248); assay: immunohistochemistry (method of Example 6, rat lung tissue)
T1 construct: The immunohistochemistry is done on rat lung tissue; also called natural SP-A in the lung tissue

[2] = target: T2, rat pulmonary surfactant protein A (rSP-A), recombinant (rat (Rattus norvegicus), UniProt P08427 21-248, limits assumed); assay: indirect phage ELISA on coated rSP-A, OD 450 nm
Experimental: (1) Single clonies obtained from the three rounds of selections and grown on 2YTAG plates were inoculated into the 72-well culture plate at 30° C., and cultured with shaking overnight. (2) 400 ul of M13K07 helper phage was put in each well of another 72-well culture plate (labeled P1 Plate) the next day. (3) 40 ul of cultured medium were taken from each well of the Master Plate, which was cultured overnight, and put in each well of the P1 Plate, and incubated at 37° C. with shaking overnight. The culture supernatant was prepared by centrifugation at 1500 g for 20 minutes set aside, and the recombinant antibody was obtained. (4) A 96-well microtiter plate was coated with rSP-A. (5) 160 ul of recombinant antibody was mixed with 40 μL of MPBS, incubated for 20 minutes at room temperature. It was then added to blocked microtiter wells and reacted for 2 hours at 37° C. (6) Washing and adding HRP secondary antibody: HRP-labeled antibody against M13KO7 was diluted 1:4000 in PBS, 200 ul of that was added to each well, and incubated and reacted for 1 hour at 37° C. (7) 200 ul TMB substrate solution was added to each well, incubated at 37° C. for about 45 minutes to develop the image, 100 ul of stop solution was added to each well to stop the development process, and measurements were taken at 450 nm. Preliminary screening was conducted to select positive clones binding to rSP-A ith specificity.

[3] = target: T2, rat pulmonary surfactant protein A …; assay: ELISA of purified nanobody on rSP-A, OD450
[4] = target: T1, natural SP-A in rat lung tissue; assay: immunohistochemistry on rat lung tissue slices, HIS-IgG-HRP secondary
Excerpt: Fresh tissues from the lung, heart, liver, spleen, kidney, muscle of rat were fixed and sliced, and diluted primary antibody (Nb6, Nb17 for the experimental groups, SPA polyclonal antibody (SPA-poly-ant) as a positive control group, and alliinase as a negative control group) was dropped on. The secondary antibody was HIS-IgG-HRP. […] The binding effect of Nb17 was similar to that of SPA-poly-ant, while Nb6 had weaker binding effect than Nb 17, as there is differneces in the amino acid sequence at the antigen binding region between these two. All three antibodies had no obvious binding effect with rat heart, liver, spleen, kidney, muscle tissues, nor had the negative control group (FIG. 6).

| Binder | binding result [1] | affinity value relative to negative control [2] | further results |
| --- | --- | --- | --- |
| Nb9 (VHH, Alpaca VHH clone; screened as phage clone; also called N0; rSPA-Nb) VHH: MQAQLAGQLQLVESGGGLVQPGGSLRLSCTASEFTLDYHSIGWFRQAPGKEREGVSCISYGDGTTFYTDSVKGRFTISRDNAKNTVTLQMNSLKPEDTAVYYCAASPGRLLLFRLCMSEDEYDFWGQGTQVTVSSEPKTPKPQGPRGLAAAGAPVPYPDPLEPRAA | binds | – | – |
| Nb19 (VHH, Alpaca VHH clone; screened as phage clone; also called N0; 19; rSPA-Nb) VHH: MQAQLAGQLQLVESGGGLVQPGGSLRLSCTASEFTLDYHSIGWFRQAPGKEREGVSCISYGDGTTFYTDSVKGRFTISRDNAKNTVTLQMNSLKPEDTAVYYCAASPGRLLLFRLCMSEDEYDFWGQGTQVTVSSEPKTPKPQGPRGLAAAGAPVPYPDPLEPRAA | binds | – | – |
| Nb43 (VHH, Alpaca VHH clone; screened as phage clone; also called N0; 43; rSPA-Nb) VHH: MQAQLAGQLQLVESGGGLVQIGGSLRLSCAASGSDFSIYHMGWYRQAPGKQRELVAAITSGGSTNYADSVKGRFTISSDNAKNTVYLQMNSLKPEDTAVYYCNADGVPEYSDYASGPVYWGQGTQVTVSSAHHSEDPGPRGLAAAGAPVPYPDPLEPRAA | – | 3 fold over negative control | – |
| Nb48 (VHH, Alpaca VHH clone; screened as phage clone; also called N0; 48; rSPA-Nb) VHH: MQAQLAGQLQLVESGGGLVEVGESLRLSCVALGFTLDGYAIGWFRQAPGKEREKISCISSTGDSTNYDDSVKGRFTISRDTAKSTVFLQMNNLIPEDTAIYYCGADLLARCGRVWYFPPDLNYRGQGTQVTVSSAHHSEDPGPRGLAAAGAPVPYPDPLEPRAA | binds | 3 fold over negative control | OD450 relative to negative control [3]: 5 fold over negative control |
| Nb22 (VHH, Alpaca VHH clone; screened as phage clone; also called N0; 22; rSPA-Nb) VHH: MQAQLAGQLQLVESGGGLVQPGGSLRLSCAASGRAFSVYAVGWYRQPPGKQRELVASITDGGSTNYADSVKGRFTVSRDNARNTAYLDMNSLKVEDTAVYYCNANYGGSVLYNYWGPGTQVTVSTEPKTPKPQGPRGLAAAGAPVPYPDPLEPRAA | – | 3 fold over negative control | – |
| Nb41 (VHH, Alpaca VHH clone; screened as phage clone; also called N0; 41; rSPA-Nb) VHH: MQAQLAGQLQLVESGGGMVQPGGSLRLSCAASGFIFSRYDMGWVRQTPGKGREWVSGINSGGGRTYYADSVKGRFTISRDDDKATLYLSMDGLKPEDTALYHCVRFTVKTPQGYYYLNDFDYWGQGTQVTVSSEPKTPKPQGPRGLAAAGAPVPYPDPLEPRAA | – | 3 fold over negative control | – |
| Nb47 (VHH, Alpaca VHH clone; screened as phage clone; also called N0; 47; rSPA-Nb) VHH: MQAQLAGQLQLVESGGGRVQAGGSLTLSCAASGDIFTLASMGWYREDLHKKRELVAQLMSDGTANYGDSVKGRVTISRDDVDTTVHLRMNTLQPSDTGEYFCYIHTSREITWGRGTQVTVSQGESSAPQSSAPQATVSSAHHSEDPGPRGLAAAGAPVPYPDPLEPRAA | – | 3 fold over negative control | – |
| Nb1 (VHH, Alpaca VHH clone; screened as phage clone (pCANTAB 5E); also called N0; rSPA-Nb) VHH: MQAQLAGQLQLVESGGGLVQPGGSLKLSCTASETTFEIYPMAWYRQAPGKQRELVAGINMISSTKYIDSVKGRFTISRDNDKNTMYLQMNSLKPEDTAVYYCNLDTTMVEGVEYWGQGTQVTVSSAHHSEDPGPRGLAAAGAPVPYPDPLEPRAA | – | 3 fold over negative control | – |
| Nb34 (VHH, Alpaca VHH clone; screened as phage clone; also called N0; 34; rSPA-Nb) VHH: MQAQLAVQLQLVESGGGTVQPGGSLNLSCVTSGFTFSRHDMSWVRQAPGKGPEWISGIGTSGTSGRYASSVKGRFTISRDNAKDTLYLQMDSLKPEDTGLYYCTTGGVYSAYVQPRGKGTQVTVSSAHHSEDPGPRGLAAAGAPVPYPDPLEPRAA | – | 3 fold over negative control | – |
| Nb27 (VHH, Alpaca VHH clone; screened as phage clone; also called N0; 27; rSPA-Nb) VHH: MQAQLAVQLQLVESGGGLVQPGGSLRLSCEVSGSRGSIYFSGWYRQAPGKQRELVASITSGGTTNYADSVKGRFTISRDNAKNTVYLQMNSLKPEDTAVYYCNIGRYGLGGSWGQGTQVTVSSEPKTPKPQGPRGLAAAGAPVPYPDPLEPRAA | – | 3 fold over negative control | – |
| Nb11 (VHH, Alpaca VHH clone; screened as phage clone; also called N0; 11; rSPA-Nb) VHH: MQAQLAGQLQLVESGGGLVQPGGSLRLSCVVSGVTFNNYGMTWVRQAPGKGLEWISTIYSNGHTYYADFVKGRFTISRDNAKNTLYLQMISLKPEDTAKYYCRLTGETYRGQGTQVTVSSEPKTRKPQGPRGLAAAGAPVPYPDPLEPRAA | binds | 3 fold over negative control | OD450 relative to negative control [3]: 5 fold over negative control |
| Nb17 (VHH, Alpaca VHH clone; screened as phage clone, then cloned into PET-30a, expressed in E. coli BL21 (DE3), nickel-purified, 17 kDa, detected with anti-His; also called N0; 17; rSPA-Nb) VHH: MQAQLAVQLQLVESGGGLVQPGGSLRLSCVVSGVTISNYGMSWVRQAPGKGLEWISTIYSNGHTYSADSVKGRFTISRDNAKNTLYLQMNSLKPEDTAKYYCKLVGETHRGQGTQVTVSSEPKTPKPQGPRGLAAAGAPVPYPDPLEPRAA | – | – | binding result [4]: binds |
| Nb18 (VHH, Alpaca VHH clone; screened as phage clone; also called N0; 18; rSPA-Nb) VHH: MQAQLAGQLQLVESGGGLVQPGGSLMLSCVVSGVTISNYGMTWVRQAPGKGLEWISTIYSNGHTYYADSVKGRFTASRDNAKNTLYLQMNSLKPEDTAKYYCKLTGETHRGQGTQVTVSSEPKTPKPQGPRGLAAAGAPVPYPDPLEPRAA | binds | – | – |
| Nb36 (VHH, screened as phage clone; also called N0; 36; rSPA-Nb) VHH: MQAQLAVQLQLVESGGGLVQPGGSLRLSCAASGRAFSVYAVGWYRQIPGNQREMVAAISSGGNTKYSDSVKGRFTVSSEPKTPKPQGPRGLAAAGAPVPYPDPLEPRAA | – | 3 fold over negative control | OD450 relative to negative control [3]: 5 fold over negative control |
| Nb3 (VHH, Alpaca VHH clone; screened as phage clone; also called N0; rSPA-Nb) VHH: MQAQLAVQLQLVESGGGLVQPGGSLRLSCVVSGVTFNNYGMSWVRQAPGKGLEWISSIYSNGHTYSADSVKGRFTISRDNANNTLYLQMNSLKPEDTANYYCKLVGETHRGQGTQVTVSSEPNTPKPQGPRGLAAAGAPVPYPDPLEPRAAYTVESCLA | – | 3 fold over negative control | – |
| Nb28 (VHH, Alpaca VHH clone; screened as phage clone; also called N0; 28; rSPA-Nb) VHH: MQAQLAGQLQLVESGGGLVQPGGSLRLSCEASGFTFDDYAIGWFRQAPGKEREEVSCISHNGGTTNYADSVKGRFSISRDNAKNTVYLQMNGLKPEDTANYYCAGARSGLCVFFELQDYDYWGQGTQVTVSSAHHSEDPGPRGLAAAGAPVPYPDPLEPRAA | – | 3 fold over negative control | – |
| Nb45 (VHH, Alpaca VHH clone; screened as phage clone; also called N0; 45; rSPA-Nb) VHH: MQAQLAVQLQLVESGGGLVQAGGSLRLSCVASGSMFNFYGMAWYRQAPGKQRELVASIDSEGRTTNYPDSLKGRFTISRDDAKSTAYLQMNNLIPDDTAVYYCNAFRGRMYDYWGQGTQVTVSSEPKTPKPQGPRGLAAAGAPVPYPDPLEPRAA | – | 3 fold over negative control | – |
| Nb32 (VHH, Alpaca VHH clone; screened as phage clone; also called N0; 32; rSPA-Nb) VHH: MQAQLAGQLQLVESGGGLVQPGGSLRLSCTASKFHLDSYAVAWFRQTPGKEREAVSFINTSDDVTYFADSVKGRFTISRDNSKNTVYLQMNVLKPEDTSVYVCAAVRSPGPTGPSMQPMWSVPDLYDYWGQGTQVTVSSAHHSEDPGPRGLAAAGAPVPYPDPLEPRAA | binds | 3 fold over negative control | OD450 relative to negative control [3]: 5 fold over negative control |
